In patent US12391768B2, “Antibodies to ticagrelor and methods of use” (MEDIMMUNE LIMITED, priority 2014, dated 2025):
Read-outs that look alike come from different tables or passages of the source.

B1: TICA0212: combination of TICA0162 and TICA0152; VH SEQ ID NO:72, VL SEQ ID NO:77 (antibody, listed as Homo sapiens, V domains shown)
VH: QVQLQESGAEVKKPGSSVRVSCKASGGTFDSYSIHWVRQAPGQGLEWMGGIIPAFGTLSSAQDFQARVTISADKSTSTAYMELSGLRSEDTAVYYCARGSFDYYFWSASHPPNDALAIWGQGTLVTVSS
VL: QSVVTQPPSVSAAPGQKVTISCSGSNSDIGNNYVSWYQQLPGTAPKLLIYDNNKRPSGIPDRFSGSKSGTSATLAITGLQAGDEADYYCGTWLYDRAVGLFGGGTKVTVL

Legend:
[1] = Total plasma concentration of ticagrelor and TAM (LC-MS/MS); assay type: in vivo, mice
Method: Blood samples were collected in tubes with EDTA anticoagulant and centrifuged for 5 min at 10000× g at room temperature to prepare plasma. The plasma concentration of ticagrelor and TAM were determined by protein precipitation and liquid chromatography with tandem mass spectrometry (LC-MS/MS) as described in published method [Sillén H., et al., J Chromatogr B Analyt Technol Biomed Life Sci 2010; 878: 2299-306] with the following deviations. Plasma, 50 μL, was protein precipitated with 180 μl internal standard (D7-ZD6140) in acetonitrile. The liquid chromatographic system and mass spectrometer was an Acquity Ultra Performance LC coupled to a Xevo TQ-S mass spectrometer from Waters. Chromatographic separation was achieved on an Aquity UPLC® BEH C18 column (2.1×50 mm, particle size 1.7 um). Negative electrospray ionization was utilized. Eluent A was water with 10 mmol/L ammonium acetate, pH5 and eluent B was acetonitrile with 10 mmol/L ammonium acetate. Injection volume was 1 to 5 μL and the analytical gradient started with 4% B, increasing to 95% in 1.5 min, remaining until 2.3 min, before returning to initial conditions within 2.4 min followed by 0.3 min re-equilibration. No quality control samples were used in the analysis. The lower limit of quantification (LLOQ) was 0.005 μmol/L and the calibration range was 0.005 to 15.0 μM.
The total plasma concentrations of ticagrelor and TAM in presence of TICA0212/MEDI2452 were determined by adding 1% formic acid (FA: Sample, 1:5) followed by protein precipitation and LC-MS/MS as described above. Formic acid was added to the sample to facilitate dissociation of ticagrelor and TICA0212/MEDI2452.

TICA0072 Fab = assay: HTRF competition binding selectivity assay, TICA0072 His-Fab; design: species or system human
Method: Total Binding control wells were set up which contained all of the assay components above except that 5 ul assay buffer was added in place of the test selectivity compound addition. Negative Binding control wells were set up which contained all of the assay components included in the Total Binding control wells except that 5ul assay buffer was added in place of the His-Fab addition. Test compound serial titrations were either ½ or ⅓ depending on the particular experiment and top final assay compound concentrations were optimized on a compound specific basis. The concentration of biotinylated ticagrelor and His-Fab was optimized on a Fab specific basis in separate experiments. For the four Fabs investigated at the end of the lead isolation phase (TICA0010, TICA0049, TICA0053 and TICA0072) the final assay reagent concentrations used are set out in Table 1 below:
For the two Fabs investigated at the end of the lead optimization phase (TICA0162 and TICA0212) the final assay reagent concentrations used were 5nM biotinylated ticagrelor and 1 nM His Fab in both cases. […] In order to enable subsequent normalization of data to correct for any such vehicle related effects parallel titrations of DMSO alone were included in most experiments in which the final assay DMSO concentrations mirrored those of the test compound serial dilutions. At the end of the set up procedure that assay was incubated for 3hrs at RT before being read on an Envision plate reader using a standard read protocol.
The negative ratio value used in the calculation of % Delta F was derived from the Negative Binding control wells. % Delta F values were then used to calculate % Specific Binding values according to the equation below: Specific Binding (%)={(Sample Delta F−Negative Binding Delta F)/(Total Binding Delta F−Negative Binding Delta F)}×100
For standard calculations of % Specific Binding Total Binding Delta F was taken from Total Binding control wells which contained all of the aforementioned components of the assay but without inclusion of any competing test compound.
In those experiments where DMSO normalization was applied DMSO normalised % Specific Binding was calculated essentially according to the equation above except that in this case Total Binding Delta F was taken from wells containing all of the components in the Total Binding control wells as well as DMSO at a concentration equivalent to that in the relevant sample well.
In a second series of experiments further selectivity data was generated for TICA0049 and TICA0072 Fabs in which a subset of four of the twelve compounds listed in FIG. 4 were retested along with ticagrelor, TAM and TIM and several adenosine related compounds. Here, in a refinement to the earlier investigations in Table 2, experiments were designed in order to enable normalisation of percent specific binding values to correct for any non-specific vehicle related effects due to DMSO. Example plotted data from this second series of experiments is shown in FIG. 5A-F along with tabulated IC50 values in Table 3.

[2] = test system: ticagrelor mediated inhibition of ADP-induced platelet aggregation; assay: Light transmission aggregometry in human PRP, reversal of ticagrelor; assay type: cell-based; details: for mean extent of reversal of ticagrelor mediated inhibition: Example 10, 1 μM Fab, n=3
Method: The extent and potency of TICA0212/MEDI2452 to reverse ticagrelor or TAM mediated inhibition of ADP-induced platelet aggregation was determined in human platelet rich plasma (PRP) using light transmission aggregometry.
For the in vitro human PRP assay, blood was collected from fasted healthy volunteers by vein puncture of vena cephalica. […] The anticoagulated human blood was centrifuged at 240× g for 15 min. PRP was carefully removed and transferred to a clean vial. Platelet poor plasma (PPP) was prepared by centrifugation of the PRP at 2000× g for 15 min. Light transmission aggregometry (LTA) was evaluated in PRP by the Platelet Aggregation Profiler (PAP-8E, Bio/Data Corporation, PA, USA.). Zero % aggregation was defined as the light transmission of PRP and 100% aggregation was defined as the light transmission of PPP.
PRP was preincubated with 1 μM ticagrelor or TAM for 1 hour before co-incubating with different concentrations of TICA0212 or an isotype control Fab for 30 minutes. Platelet aggregation was initiated by addition of 20 uM ADP and was continuously recorded for 6 min. Data for final aggregation (FA) extent at 6 min was analysed.
The time of onset of TICA0212/MEDI2452 to reverse ticagrelor or TAM was determined in human platelet rich plasma (PRP) using light transmission aggregometry as in example 8. PRP was preincubated with 1 μM ticagrelor or TAM for 1 hour before adding 1 μM TICA0212/MEDI2452 and co-incubating for 5, 10, 15, 30 and 60 min, or adding an isotype control Fab for 30 min. Platelet aggregation was initiated by addition of 20 μM ADP and was continuously recorded for 6 min. Data for final aggregation (FA) extent at 6 min was analyzed.

Molecule	ticagrelor plasma exposure, average ([1]; Example 11, after termination of the ticagrelor infusion, i.v., mice)	mean total plasma concentration ([1]; Example 12, end of ticagrelor infusion 300 μg/kg/min 20 min, mice)	mean total plasma concentration at time of tail cut ([1]; Example 12, vehicle treated mice, t=30 minutes)	IC50 (TICA0072 Fab; first series (Table 2), not DMSO normalised, read-out: IC50 (uM) for inhibition of biotinylated ticagrelor binding to TICA0072 his-Fab)	IC50 (TICA0072 Fab; second series (Table 3), DMSO normalised, read-out: IC50 in competition binding selectivity studies, TICA0072)	IC50 ([2]; 1 μM ticagrelor, 20 μM ADP, human PRP, 30 min co-incubation, mean n=5, read-out: IC50, half-maximum reversal of ticagrelor mediated inhibition of ADP-induced platelet aggregation)	mean extent of reversal of ticagrelor ([2]; Example 9, 1:1 conditions (1 μM Fab: 1 μM ticagrelor), 30 min incubation)	mean extent of reversal of ticagrelor mediated inhibition ([2]; 1 μM ticagrelor, co-incubation 5 min)	mean extent of reversal of ticagrelor mediated inhibition ([2]; 1 μM ticagrelor, co-incubation 10 min)	mean extent of reversal of ticagrelor mediated inhibition ([2]; 1 μM ticagrelor, co-incubation 15 min)	mean extent of reversal of ticagrelor mediated inhibition ([2]; 1 μM ticagrelor, co-incubation 30 min)	mean extent of reversal of ticagrelor mediated inhibition ([2]; 1 μM ticagrelor, co-incubation 60 min)
CCCSc1nc(N[C@@H]2C[C@H]2c2ccc(F)c(F)c2)c2nnn([C@@H]3C[C@H](OCCO)[C@@H](O)[C@H]3O)c2n1 [Ticagrelor, (1S,2S,3R,5S)-3-[7-{[(1R,2S)-2-(3,4-difluorophenyl)cyclopropyl]amino}-5-(propylthio)-3H-[1,2,3]triazolo[4,5-d]pyrimidin-3-yl]-5-(2-hydroxyethoxy)cyclopentane-1,2-diol]	1.4 µM	7.6 µM	2.4 µM	0.113 µM	0.356 µM							
B1						640 nM	78%	85%	69%	74%	80%	81%
